Measurements as given in patent US20180162928A1 (Janssen / Centocor, published 2018).
Read-outs that look alike come from different tables or passages of the source.

How the values were obtained:
Test in all cases: ELISA, lysate on plate-bound antigen
[1] = molecular target: unrelated Fc-fused recombinant protein
[2] = molecular target: T1, recombinant biotinylated PD-L1 (rhPD-L1/Fc Chimera, R&D Systems 156-B7) (human, UniProt Q9NZQ7 19-238, biotinylated (sites not given))
T1 construct: Bought Fc chimera; also called human PD-L1
T1 sequence (Q9NZQ7 19-238, change not shown): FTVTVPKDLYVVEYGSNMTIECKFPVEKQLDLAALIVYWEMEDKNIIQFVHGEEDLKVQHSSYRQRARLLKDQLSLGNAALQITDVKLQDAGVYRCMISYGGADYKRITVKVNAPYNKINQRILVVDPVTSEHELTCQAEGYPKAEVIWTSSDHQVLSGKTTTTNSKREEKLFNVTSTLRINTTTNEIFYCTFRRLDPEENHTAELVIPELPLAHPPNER
Method in brief: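 On streptavidin plates coated with biotinylated PD-L1 (unrelated Fc-fusion protein and HSA as negative controls), diluted lysate was applied for 1 h. Bound FN3 domains detected with HRP-conjugated anti-FN3 antibody and POD substrate.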

[3] = molecular target: unrelated Fc-fused recombinant protein; remark: listed apart in the source
[4] = molecular target: human serum albumin (human) (UniProt P02768)
Sequence of human serum albumin (human) (P02768 25-609 limits assumed): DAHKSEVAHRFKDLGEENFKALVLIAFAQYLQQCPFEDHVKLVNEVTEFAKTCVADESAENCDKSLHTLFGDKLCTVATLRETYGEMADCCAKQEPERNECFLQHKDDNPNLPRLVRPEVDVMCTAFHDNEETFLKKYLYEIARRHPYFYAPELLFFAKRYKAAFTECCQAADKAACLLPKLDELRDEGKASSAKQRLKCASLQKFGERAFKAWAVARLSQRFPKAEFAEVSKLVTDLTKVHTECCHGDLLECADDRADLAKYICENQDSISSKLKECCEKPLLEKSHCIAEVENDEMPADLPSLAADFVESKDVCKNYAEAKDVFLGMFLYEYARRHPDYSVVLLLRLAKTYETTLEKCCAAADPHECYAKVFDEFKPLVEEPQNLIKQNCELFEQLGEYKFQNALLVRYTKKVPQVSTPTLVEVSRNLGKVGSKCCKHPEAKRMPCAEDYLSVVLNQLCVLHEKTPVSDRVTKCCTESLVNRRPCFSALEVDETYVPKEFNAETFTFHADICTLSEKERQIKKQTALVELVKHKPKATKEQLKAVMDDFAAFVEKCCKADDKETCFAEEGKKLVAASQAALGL

| ELISA Fc Control (RSU) [1] | ELISA PD-L1 Fc (RSU) [2] | ELISA Fc Control (RSU) [3] | ELISA HSA (RSU) [4] | Binder |
| --- | --- | --- | --- | --- |
| 2320 RSU | 1.9e+07 RSU | – | – | ISOP194BR9P1A9 (designed binder, not shown: small tags and cut ends, FN3 domain; E. coli lysate in the ELISA) LPAPKNLVVSRVTEDSARLSWFNADEEYFDSFLIQYQESEKVGEAIVLTVPGSERSYDLTGLKPGTEYTVSIYGVYDRKVKFVQSNPLSAIFTT |
| 4400 RSU | 5.21e+06 RSU | – | – | ISOP194AR9P1H10 (designed binder, not shown: small tags and cut ends, FN3 domain; E. coli lysate in the ELISA) LPAPKNLVISRVTEDSARLSWPAHYHSAFFDSFLIQYQESEKVGEAIVLTVPGSERSYDLTGLKPGTEYTVSIYGVYQRKVEFHSNPLSAIFTT |
| – | 251000 RSU | 480 RSU | 560 RSU | ISOP121ER5P1E7 (designed binder, not shown: small tags and cut ends, FN3 domain; E. coli lysate in the ELISA) LPAPKNLVVSRVTEDSARLSWTAPDAAFDSFTIGYTETPPRGEAIVLTVPGSERSYDLTGLKPGTKYYVSILGVKGGLGSWPLSAIFTT |
